Experiments:
[1] = In vitro stability in PBS at room temperature (radiochemical purity by TLC); format: physicochemical; details: room temperature (25°C), 24 h after labeling, TLC on polyamide layer with acetonitrile
Protocol: (§1) The radiochemical purity of ^99mTc-pHLIP (Var7) and ^99mTc-kVar7 was determined by thin-layer chromatography (TLC). A thin polyamide layer was used as the stationary phase, and acetonitrile was used as the developing solvent. A sufficient amount of the labeled product was aspirated through a capillary pipette and spotted at the origin of the thin polyamide layer. The thin polyamide layer was air-dried and vertically placed in a test tube with developing solvent. The saturated thin polyamide layer was removed, dried, and placed on the TLC scanner for testing.
(§2) ^99mTc-pHLIP (Var7) and ^99mTc-kVar7 were placed in PBS at room temperature (25°C) and in fresh human serum at 37°C. Samples were taken to test the radiochemical purity at 1, 4, 6, and 24 h after labeling.

[2] = format: in vitro ADME, human
Protocol: as §1, §2

[3] = system: MDA-MB-231 cells; experiment: Binding of labeled peptides to MDA-MB-231 cells at different pH values; format: cell-based, human; details: n=3
Protocol: a. When MDA-MB-231 cells grew to more than 90% confluence, they were digested. The cell concentration was adjusted to approximately 1.0 × 10^5 cells/mL, and 1 mL of the cell solution was added to each well of a 12-well plate and cultured overnight in a 37°C cell incubator.
b. The medium was discarded, and the cells were washed with PBS twice. Then, 2 mL of fresh medium and 37 kBq ^99mTc-pHLIP (Var7) or ^99mTc-kVar7 (20-30 μL) were added to each well. We adjusted the pH values of the wells to four levels (pH 7.4, 7.0, 6.5, and 6.0).
c. After culturing for 30, 60, 90, 120, and 180 min, the supernatant was aspirated into a supernatant tube, and each well was washed two times with PBS at the corresponding pH (7.4, 7.0, 6.5, or 6.0). The cleaning solution was also added into the supernatant tube. The cells were digested fully with 0.25% trypsin, and the cell suspension was aspirated into a cell tube and washed twice with PBS. The cleaning solution was also added to the cell tube. A γ counter was applied to measure the radioactivity count of the cell tube (B) and supernatant tube (F). The cell-binding fraction of ^99mTc-pHLIP (Var7) or ^99mTc-kVar7 = B/(B+F) × 100%.

[4] = system: MDA-MB-231 tumors; set-up: species or system BALB/c nude mice; details: mouse, in vivo
Protocol: (§3) Animal experiments were approved by the ethics committee of Qingdao University, and the management of animals followed ethical standards. We built an MDA-MB-231 tumor model using four- to- five-week-old female BALB/c nude mice (Shanghai SLAC Laboratory Animal Co., Ltd, China). To do so, 0.1 mL of a cell suspension (50 µL PBS + 50 µL Matrigel) containing 1 × 10^6 MDA-MB-231 cells was subcutaneously inoculated into the right axilla of each mouse.
When tumor diameters reached 0.8–1.0 cm, 24 tumor-bearing nude mice were selected for an in vivo biodistribution experiment. Each nude mouse was injected with approximately 1480 kBq/200 μL ^99mTc-pHLIP (Var7) or ^99mTc-kVar7 through the tail vein. The mice were sacrificed humanely 1 h, 2 h, 4 h, and 6 h after injection, and their tissues and organs, such as the brain, heart, lung, liver, kidney, stomach, small intestine, blood, muscle, bone, and tumor, were weighed and measured for their radioactivity count. The results are expressed as the percentage of injected dose per gram of tissue (%ID/g).

[5] = system: MDA-MB-231 tumors; format: in vivo, BALB/c nude mice; details: 1, 2, 4, and 6 h after tail vein injection of about 11.1 MBq/200 μL, n = 3
Protocol: as §3
When tumor diameters reached 0.8–1.0 cm, six tumor-bearing nude mice were selected for imaging. Each nude mouse was injected with approximately 11.1 MBq/200 μL ^99mTc-pHLIP (Var7) or ^99mTc-kVar7 through the tail vein. The tumor-bearing mice were anesthetized with 2% isoflurane at 1 h, 2 h, 4 h, and 6 h after injection and were fixed on the imaging bed of a small-animal SPECT/CT imaging system in the prone position. A pinhole collimator was applied. The main parameters were a matrix size of 256 × 256, magnification power of 1.45, and acquisition time at each time point of 10 min.

## GaGG-GABA-ACEEQNPWARYLEWLFPTETLLLEL-NH2 [^99mTc-pHLIP (Var7)]
[1]
  radiochemical purity in PBS at 24 h: > 99%
[2]
  radiochemical purity in fresh human serum at 24 h: > 96%
[3]; pH 6.0, 180 min, 37 kBq per well, γ counter, B/(B+F) × 100%, mean ± SD
  binding fraction to MDA-MB-231 cells: 3.33 ± 0.12%
[3]; pH 6.5, 180 min, 37 kBq per well, γ counter, B/(B+F) × 100%, mean ± SD
  binding fraction to MDA-MB-231 cells: 3.02 ± 0.04%
[3]; pH 7.0, 180 min, 37 kBq per well, γ counter, B/(B+F) × 100%, mean ± SD
  binding fraction to MDA-MB-231 cells: 2.87 ± 0.03%
[3]; pH 7.4, each time point (30, 60, 90, 120, and 180 min)
  binding fraction to MDA-MB-231 cells: remained low
[4]
  blood clearance: slow blood clearance
  tumor/nontumor (T/NT) ratio, trend over time: increased over time
[5]
  SPECT/CT imaging of tumors: clearly imaged at each time point

## GaGG-GABA-ACEEQNPWARYLKWLFPTKTLLLKL-NH2 [^99mTc-kVar7, technetium-99m-labeled control peptide kVar7, pH-insensitive, with N4 chelating group and GABA spacer, reference compound]
[1]
  radiochemical purity in PBS at 24 h: > 99%
[2]
  radiochemical purity in fresh human serum at 24 h: > 96%
[3]; all tested pH values (6.0, 6.5, 7.0, and 7.4), each time point (30, 60, 90, 120, and 180 min)
  binding fraction to MDA-MB-231 cells: remained low
[4]
  blood clearance: slow blood clearance
  tumor/nontumor (T/NT) ratio, trend over time: no significant increasing trend
[5]
  SPECT/CT imaging of tumors: not imaged
